Experimental data: patent publication EP1073891B1, “METHOD OF PREDICTING RECEPTOR MODULATING ACTIVITY” (Duke University, priority 1998, dated 1999)

Experiments:
Type in all cases: cell-based
ERα = biological target: T1, ERα (Homo sapiens, UniProt P03372); assay: Disruption of ERα transcriptional activity by peptide-Gal4DBD fusions, 3xERELuc reporter in HeLa cells (Examples 101.4, 101.7)
T1 sequence (P03372 1-595): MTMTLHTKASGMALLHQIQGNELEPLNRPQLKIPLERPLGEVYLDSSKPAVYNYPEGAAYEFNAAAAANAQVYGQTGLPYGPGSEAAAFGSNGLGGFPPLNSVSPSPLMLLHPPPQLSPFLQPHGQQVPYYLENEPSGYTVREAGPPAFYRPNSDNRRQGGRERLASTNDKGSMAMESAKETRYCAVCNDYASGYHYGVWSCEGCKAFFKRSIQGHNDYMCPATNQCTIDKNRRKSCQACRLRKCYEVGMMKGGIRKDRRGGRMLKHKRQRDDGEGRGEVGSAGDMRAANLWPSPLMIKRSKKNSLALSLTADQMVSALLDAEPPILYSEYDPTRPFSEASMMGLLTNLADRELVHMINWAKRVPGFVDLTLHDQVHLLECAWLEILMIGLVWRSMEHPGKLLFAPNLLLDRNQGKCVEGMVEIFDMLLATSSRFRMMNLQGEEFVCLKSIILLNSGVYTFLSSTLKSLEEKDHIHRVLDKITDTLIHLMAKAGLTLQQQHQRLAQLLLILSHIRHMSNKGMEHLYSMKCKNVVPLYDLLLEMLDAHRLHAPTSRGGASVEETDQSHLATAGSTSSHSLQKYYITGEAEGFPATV
Method: HeLa cells were transfected with ERα expression plasmid (RST7ERα), 3xERELuc reporter, pCMVβgal along with different peptide-Gal4DBD fusion constructs. pM is the Gal4DBD control without peptide fusion. Luciferase activity was measured and normalized (Fig. 16). The ability of different peptides to disrupt ERα transcriptional activity correlates with the affinity of these peptides to ERα as measured in mammalian two-hybrid assays in [Figure 15(A)]. […] Two copies of LXXLL motifs interact synergistically to disrupt ER transcriptional activity. 2XF6: two copies of F6 peptide was constructed in tandem with a 54-amino acid spacing linker that has the same sequence as in that in between GRIP-1 NR box II and NR box III. F6G:Ga14DBD-F6 fusion with only one copy of F6 peptide plus the linker. Transient transfection was performed in HeLa cells with 3xERELuc, RST7ERα, pCMVβgal and increasing amount of Gal4DBD-peptide fusion constructs as indicated in the X-axis.
(§1) It contains the LXXLL motif. […] HeLa cells were transfected with either ERα or ERβ expression plasmids along with 3xERELuc reporter, pCMVβgal and peptide-DBD fusion constructs as indicated.

TR = biological target: T2, TR (Homo sapiens, UniProt P10828); assay: Mammalian two-hybrid of LXXLL peptides with nuclear receptors (Example 101.6); settings: mammalian two-hybrid receptor panel
T2 construct: Full length receptors and selected peptides were expressed as VP16 and Gal4 DBD fusions, respectively; expressed in transfected cells; host or cells: mammalian cells; the plasmid was a gift (D.D. More, Baylor College of Medicine)
T2 sequence (P10828 1-461): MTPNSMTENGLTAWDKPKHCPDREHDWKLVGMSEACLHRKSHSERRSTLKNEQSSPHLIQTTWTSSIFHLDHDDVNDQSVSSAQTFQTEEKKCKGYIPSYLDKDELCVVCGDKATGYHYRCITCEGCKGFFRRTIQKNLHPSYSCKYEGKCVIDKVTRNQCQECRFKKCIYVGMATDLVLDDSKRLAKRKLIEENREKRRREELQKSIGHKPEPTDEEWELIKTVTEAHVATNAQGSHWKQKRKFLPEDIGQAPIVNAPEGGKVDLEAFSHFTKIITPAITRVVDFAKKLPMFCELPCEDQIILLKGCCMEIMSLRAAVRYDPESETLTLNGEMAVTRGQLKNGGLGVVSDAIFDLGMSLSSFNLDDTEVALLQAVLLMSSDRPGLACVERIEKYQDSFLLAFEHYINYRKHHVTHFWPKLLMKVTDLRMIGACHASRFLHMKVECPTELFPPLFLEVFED
Text: (§2) Plasmids: All the Gal4DBD-peptide fusions were constructed as follows: DNA sequences code for the peptides were excised from mBAX vector with Xhol and Xbal restriction enzymes and subcloned into pMsx vector derived from pM vector (Clontech) with a linker sequence to generate infram Sall and Nhel sites for cloning. VP16ER-a construct was generated by polymerase chain reaction (PCR) of full length human ER-α cDNA with primers containing ECoRI flanking both 5' and 3' ends. […]
(§3) The interactions between different LXXLL motifs and different nuclear receptors were assayed in a mammalian two-hybrid system (Fig. 18). Full length receptors and selected peptides were expressed as VP16 and Gal4 DBD fusions, respectively. The strength of the interactions was measured by the activity of the 5xGa14Luc3 reporter gene. […]

RAR = biological target: T3, RAR (Homo sapiens, UniProt P10276); assay: as above; settings: mammalian two-hybrid receptor panel
T3 construct: Full length receptors and selected peptides were expressed as VP16 and Gal4 DBD fusions, respectively; expressed in transfected cells; host or cells: mammalian cells
T3 sequence (P10276 1-462): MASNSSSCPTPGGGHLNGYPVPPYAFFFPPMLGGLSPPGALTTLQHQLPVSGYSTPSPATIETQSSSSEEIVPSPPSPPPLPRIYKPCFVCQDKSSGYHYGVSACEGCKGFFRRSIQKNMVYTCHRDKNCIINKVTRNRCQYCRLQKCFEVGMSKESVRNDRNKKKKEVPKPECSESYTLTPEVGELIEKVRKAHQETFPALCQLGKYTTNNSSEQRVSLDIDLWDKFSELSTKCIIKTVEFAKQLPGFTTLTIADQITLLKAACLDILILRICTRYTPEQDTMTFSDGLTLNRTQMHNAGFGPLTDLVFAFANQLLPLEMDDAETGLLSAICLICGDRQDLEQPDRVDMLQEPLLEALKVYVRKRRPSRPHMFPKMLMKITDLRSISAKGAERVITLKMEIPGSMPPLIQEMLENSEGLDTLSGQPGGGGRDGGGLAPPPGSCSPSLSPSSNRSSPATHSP
Text: as §2, §3

ERβ [1] = biological target: T4, ERβ (Homo sapiens, UniProt Q92731); assay: Disruption of ERβ transcriptional activation by peptide-DBD fusions, 3xERELuc reporter in HeLa cells (Example 101.7); settings: 17β-estradiol
Text: as §1
Target sequence in this assay (Q92731 whole entry, the tested form may be a part): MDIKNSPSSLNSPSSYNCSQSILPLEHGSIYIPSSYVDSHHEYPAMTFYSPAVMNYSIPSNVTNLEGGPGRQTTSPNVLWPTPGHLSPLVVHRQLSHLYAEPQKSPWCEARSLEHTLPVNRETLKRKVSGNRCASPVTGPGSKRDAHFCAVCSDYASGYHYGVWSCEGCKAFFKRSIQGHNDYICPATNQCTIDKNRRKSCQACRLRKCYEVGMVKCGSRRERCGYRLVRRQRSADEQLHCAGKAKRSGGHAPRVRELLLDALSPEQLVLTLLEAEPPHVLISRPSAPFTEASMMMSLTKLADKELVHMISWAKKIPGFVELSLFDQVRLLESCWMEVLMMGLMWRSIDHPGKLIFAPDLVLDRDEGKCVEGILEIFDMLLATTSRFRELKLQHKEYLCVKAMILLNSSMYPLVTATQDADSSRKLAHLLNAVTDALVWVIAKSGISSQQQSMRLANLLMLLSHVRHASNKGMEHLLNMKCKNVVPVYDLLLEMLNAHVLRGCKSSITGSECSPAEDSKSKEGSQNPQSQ

ERβ [2] = biological target: T4, ERβ; assay: Mammalian two-hybrid of LXXLL peptides with nuclear receptors (Example 101.6); set-up: Full length receptors and selected peptides were expressed as VP16 and Gal4 DBD fusions, respectively; expressed in transfected cells; settings: mammalian two-hybrid receptor panel
Text: as §2, §3
Target sequence in this assay (Q92731 whole entry, species assumed, the tested form may be a part): as the sequence (Q92731 whole entry, the tested form may be a part) above

## SSIKDFPNLISLLSR [Peptide #293]
ERα
  disruption of ERα transcriptional activity: did not interfere
TR
  interaction with TRβ: selective interactions
RAR
  interaction with RARα: selective interactions
ERβ [1]
  disruption of the transcriptional activation by ERβ: strongly disrupted
ERβ [2]
  interaction with ERβ: selective interactions
